# From the RNAGym collection of RNA variant scans (doi:10.1073/pnas.2313332121)
# B1: TPR t1 (parent)
# chain: GACCAAUCUGCCCUCAGAGCUCGAGAACAUCUUCGGAUGCAGAGGAGGCAGGCUUCGGUGGCGCGAUAGCGCCAACGUCCUCAACCUCCAAUGCAUCCCACCACAUGAUGAUGCCUGAAGAGCCUUGGUUUUUUG
# Variants of: B1
# Experiment: polymerase ribozyme fitness, log enrichment relative to wild type (log ratio); higher = more active; in vitro selection for triplet polymerase activity
# How it was run: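 Fitness is a logarithmic measure of how a genotype enriched relative to the wild type, with replicate averages weighted by inverse variance. The logarithm uses base 2, and enrichment came from Illumina sequencing of input and output libraries. Those libraries were PCR-built, transcribed mutants of each subunit of a heterodimeric triplet polymerase ribozyme, passed through one triplicate in vitro selection round that included frozen incubation at −7 °C, gel excision of extended constructs and streptavidin-bead capture. Genotypes were kept only if they had ≥10 input reads and ≥1 read per output.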
row,Variant,polymerase ribozyme fitness (log ratio)
1,G10U C85U,-0.736
2,G39A C89G A90C,-2.4
3,A37U G77A A111C,0.0508
4,A46U G47A C72U A121G U130C,0.526
5,G36C G69U G120C,0.673
6,G10U G19A G36C C79U,-3.73
7,C8A C40U A90C,-0.703
8,G45A G48U C49A C53U G69C C115G,-4.6
9,A18G A118G,-3.1
10,A74U A83G,-0.972
11,A50U C86U G93U U112C,-1.3
12,A5G A121C,0.258
13,C49A C72A G110C U112A,-6.75
14,C40U G107U,-6.46
15,C12U A37C A46U,-1.38
16,A24C G48C G69U,-6.7
17,G25U A29G G45A C80U G110U,-6.86
18,C88U C94U U129G,-1.48
19,C40A G61U U109G,-6.14
20,G36C A50C U59A A118U G120A,-0.713
21,A6U A46C,-0.0914
22,A16U G61C U130G,-2.75
23,C8A G36U U112A G127U,2.16
24,U112C G135U,-0.0479

row,Variant,polymerase ribozyme fitness (log ratio)
1,C4G U55C C72U C94G,-3.35
2,A6U U38G U59C C86A,-3.66
3,A2U G63C,-3.13
4,A18U C70U A121U,-1.34
5,A50C G71U,0.242
6,G51A G52A U112A U116C G128A,-6.33
7,C13A G69C,-3.15
8,C12U G35U C89G C115U,-6.55
9,U54G G63C C86G C114A U133C,-3.86
10,C72A U133A,0.191
11,G69A U78C,-2.5
12,U7C C40A,-0.659
13,U7G G10U C15A U54A C104A,-3.26
14,A108G G135U,-2.4
15,U96G C124A,1.39
16,G39U C114G,-3.65
17,A27C C70U,-3.87
18,C62A G122A,-1.85
19,C11U U33G A121C,-4.56
20,U32C C72A C101U U112A C123G,-3.08
21,C34A C56A U78C C104U,-2.07
22,C3G C13A A95C,-4.35
23,A29C C73U U96A,-5.54
24,G19A U54C C73G C82G C114G G135A,-3.8

row,Variant,polymerase ribozyme fitness (log ratio)
1,G48C G93A,-1.82
2,C64U A84C C123G G135C,1.41
3,U109C A121G C124A G127C,-3.66
4,G51U G120C,-2.42
5,G35A G120A,-2.08
6,G10A G61C A83U,-2.03
7,G52C G63C C85U C104U,-3.03
8,C53A U59C A121G,1.49
9,G36A G71U C76U U125A,-4.4
10,A2G A41U G120U,-1.2
11,C56U C86U C89U U116G,-2.41
12,G58A C70U C79G A100C,-6.76
13,A18G C40U C53U A83U G93C,-5.03
14,A5G A111G C123A G128U,-2.99
15,U9A C20G U116C,-2.71
16,G35U C62U,-3.74
17,A43G G69C A90C,-2.1
18,C4A A18C A43U C72A,-3.77
19,U38G C80U C86U,-1.86
20,G23A C115U,-3.88
21,C22G A27C C56G G120C,-4.73
22,C4G G36U A90C C124U,-3.18
23,U59A C72A,-1.18
24,C13G G39U,-2.13

row,Variant,polymerase ribozyme fitness (log ratio)
1,U21C G57U,-0.235
2,A24U,-5.7
3,C12U C20A G71A U87C,-2.91
4,A37C C123A,-0.297
5,G47U G61A U131A,-0.875
6,C49U C85G,-2.2
7,A68G U78A C79U U106G,-6.12
8,C8U C22G G39C,-4.04
9,A18U G48U G61U C104U,-2.08
10,G93A A118G G135U,-1.11
11,C76U U81C A100U G110A,-3.78
12,C8A A74U C104A C124G,-0.357
13,A18U U112C G128A,-2.38
14,G60U G93U,-1.03
15,C94U C98U G120U G127U,-0.759
16,C12U A26G C56U C72U G117A U125G,-2.09
17,A46U U112A C123A,-1.26
18,G36U G63C C76G G117A,-5.18
19,U78C A83U G107U,-5.42
20,C13A G52U U55C,-2.87
21,C8A A18G C115A,-4.82
22,A6C U7G A29G G48C A95C,-3.37
23,C11G A41C C56U C72U G93A C123G G135U,-4.47
24,U38G G127U G135U,-2.73

row,Variant,polymerase ribozyme fitness (log ratio)
1,C53A U78G C80U C123G,0.434
2,C70U G117U,-3.24
3,A74U G120A,0.0292
4,C15U U54A U59A C80A C82G C123U,-3.3
5,G44C G69U A75G C79U U87A C97U G135U,-5.55
6,C56U U125C,-2.74
7,C13U C15U,-2.01
8,C4U C12U A16G C40A G57U,-2.2
9,C31U U78A A90G,-3.97
10,C56U C73U U109A,-4.36
11,C11A A91C,-2.43
12,U32C A41U C89G G93U,-4.07
13,A46C U126G,-2.07
14,A29G,-0.987
15,C3U C13U A37C C70A,-1.1
16,G71U C86U C102U,-2.63
17,G63A U96A,-1.81
18,C8U C11U U38G A43G C104U,-2.94
19,G60C G135A,-1.35
20,C8A C12U A16U C40A C62U U87A,-1.51
21,C49U U54C G117U G128A,-5.68
22,C99A C123U,-6.27
23,C11A A84G,-2.26
24,G61C G77C C79U,-0.228

row,Variant,polymerase ribozyme fitness (log ratio)
1,G19C C62G C115U,-4.26
2,C13A C72G,-1.85
3,C101A C114G,-3.4
4,A50U A74C A84G U112A,-4.89
5,G36A A46U G57U C104U,-1.52
6,C123G G128C,-0.446
7,G60C C94G,-1.12
8,C49G C85U G117C,-3.67
9,C4A C40U C114U,-4.58
10,C4G C13G C49A G60A C62U,-4.62
11,U14G A121C,0.71
12,G45A C85U,-1.45
13,U30A A121C,-3.22
14,C20G C62A C98A G110C C114A,-8.01
15,A26U C64U A118G,-3.85
16,A41C C82A A111C,-2.14
17,G39A A43U C114U,-2.78
18,U7G C13G C40U,0.145
19,A41U A111U,-4.55
20,G63U C80A,-4.88
21,A37U U59C,-0.107
22,A27G G45A A83G U130G,-4.37
23,C70U C73G A105U,-4.61
24,G35C G69U C79G U130A,-4.92

row,Variant,polymerase ribozyme fitness (log ratio)
1,C11U A41U G69C,-2.81
2,C20G A46U A118G,-5.92
3,G71U C80A U116G G117U A119U,-7.09
4,A2U U112G,-1.44
5,C40U G47C C53U,-3.49
6,G63U U106G,-3.21
7,C34U C56A C82A A83U C97A A121U,-5.4
8,G44A A75U A118G,-1.19
9,C56U A74G U81G G117U A118U,-4.51
10,G61C G69U,-1.37
11,C11G G23A,-5.25
12,U33C G120U,-4.63
13,C34A G61U,-3.25
14,C8G G69C U78G C101A,-3.19
15,U7G G17A G39A U55A G61A C82G C115A U130C,-1.97
16,G47A C49U G63C,-1.35
17,C89A C124G,-0.00331
18,G25A C72U,-5.57
19,C8A A84U C102A,-1.91
20,A24U A37G A108G G110U A121C,-6.34
21,A66G G71U C94A A111C,-4.73
22,C11A C12U G61U A100U,-1.23
23,C8U G77A,0.143
